Measured values: article PMC9482650, “Quantitative fragmentomics allow affinity mapping of interactomes” (Nature Communications, 2022)

T1: APBA3_1, O96018
T1 sequence (O96018 389-490, limits assumed, looked up): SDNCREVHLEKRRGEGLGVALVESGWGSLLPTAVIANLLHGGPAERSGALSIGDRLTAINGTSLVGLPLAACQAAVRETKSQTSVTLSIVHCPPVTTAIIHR

T2: DFNB31_3, Q9P202
T2 sequence (Q9P202 811-907, limits assumed, looked up): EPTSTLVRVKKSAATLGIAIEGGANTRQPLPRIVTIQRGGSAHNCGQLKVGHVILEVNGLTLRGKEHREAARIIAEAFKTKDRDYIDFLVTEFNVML

T3: DLG3_2, Q92796
T3 sequence (Q92796 221-321, limits assumed, looked up): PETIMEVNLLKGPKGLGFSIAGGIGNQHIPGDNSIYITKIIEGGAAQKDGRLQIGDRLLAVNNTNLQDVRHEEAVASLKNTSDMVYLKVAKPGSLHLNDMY

T4: LIN7A, O14910
T4 sequence (O14910 103-200, limits assumed, looked up): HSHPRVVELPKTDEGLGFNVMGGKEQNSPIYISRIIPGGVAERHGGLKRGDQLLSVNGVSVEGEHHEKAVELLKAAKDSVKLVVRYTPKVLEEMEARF

T5: NHERF3_1, Q5T2W1
T5 sequence (Q5T2W1 4-100, limits assumed, looked up): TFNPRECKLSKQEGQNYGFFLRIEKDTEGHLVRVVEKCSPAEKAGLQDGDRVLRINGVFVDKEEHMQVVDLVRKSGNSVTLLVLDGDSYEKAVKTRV

T6: PARD3B_1, Q8TEW8
T6 sequence (Q8TEW8 196-299, limits assumed, looked up): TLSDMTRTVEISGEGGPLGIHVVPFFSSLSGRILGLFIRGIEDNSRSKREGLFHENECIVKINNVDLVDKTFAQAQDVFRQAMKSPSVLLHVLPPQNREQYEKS

T7: RADIL, Q96JH8
T7 sequence (Q96JH8 971-1071, limits assumed, looked up): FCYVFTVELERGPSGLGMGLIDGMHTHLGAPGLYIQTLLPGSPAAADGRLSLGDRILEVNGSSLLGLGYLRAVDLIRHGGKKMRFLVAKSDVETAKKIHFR

T8: SNTG1, Q9NSN8
T8 sequence (Q9NSN8 52-150, limits assumed, looked up): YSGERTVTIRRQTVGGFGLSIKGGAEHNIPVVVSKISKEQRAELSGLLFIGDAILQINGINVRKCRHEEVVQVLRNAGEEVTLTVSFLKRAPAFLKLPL

T9: SYNJ2BP, P57105
T9 sequence (P57105 8-110, limits assumed, looked up): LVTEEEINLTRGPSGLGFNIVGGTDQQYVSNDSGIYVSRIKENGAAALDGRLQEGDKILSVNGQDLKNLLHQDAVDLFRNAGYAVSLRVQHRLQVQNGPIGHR

T10: TJP3_3, O95049
T10 sequence (O95049 375-456, limits assumed, looked up): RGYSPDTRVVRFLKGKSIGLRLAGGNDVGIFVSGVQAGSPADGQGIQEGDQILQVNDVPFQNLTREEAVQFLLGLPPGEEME

T11: TX1BP3, O14907
T11 sequence (O14907 10-122, limits assumed, looked up): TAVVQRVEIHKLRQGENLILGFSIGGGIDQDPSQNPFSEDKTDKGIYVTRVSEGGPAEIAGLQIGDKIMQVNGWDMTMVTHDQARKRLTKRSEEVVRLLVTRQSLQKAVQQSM


Assays:
Assay in all cases: holdup assay
Design in all cases: key: below the threshold = too weak to quantify, mostly under pKd 3.1 to 4
Conditions in all cases: plain residues with an end cap or a label only (N-terminal biotin on a linker: ado-ado)
APBA3_1, O96018 = target: T1, APBA3_1, O96018
CASK, O14936 = target: CASK, O14936
Sequence of CASK, O14936 (O14936 487-570): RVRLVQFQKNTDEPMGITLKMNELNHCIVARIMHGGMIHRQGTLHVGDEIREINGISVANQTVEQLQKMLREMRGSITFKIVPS

DFNB31_3, Q9P202 = target: T2, DFNB31_3, Q9P202
DLG2_2, Q15700 = target: DLG2_2, Q15700
DLG2_3, Q15700 = target: DLG2_3, Q15700
DLG3_2, Q92796 = target: T3, DLG3_2, Q92796
DLG5_1, Q8TDM6 = target: DLG5_1, Q8TDM6
Sequence of DLG5_1, Q8TDM6 (Q8TDM6 617-713): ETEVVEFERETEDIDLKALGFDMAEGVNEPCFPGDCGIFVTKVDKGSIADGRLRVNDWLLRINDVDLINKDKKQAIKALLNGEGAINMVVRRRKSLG

FRMPD2_1, Q68DX3 = target: FRMPD2_1, Q68DX3
Sequence of FRMPD2_1, Q68DX3 (Q68DX3 770-861): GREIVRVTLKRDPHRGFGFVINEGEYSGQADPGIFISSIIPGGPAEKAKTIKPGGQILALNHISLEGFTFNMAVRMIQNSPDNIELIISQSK

FRMPD3, Q5JV73 = target: FRMPD3, Q5JV73
Sequence of FRMPD3, Q5JV73 (Q5JV73 12-100): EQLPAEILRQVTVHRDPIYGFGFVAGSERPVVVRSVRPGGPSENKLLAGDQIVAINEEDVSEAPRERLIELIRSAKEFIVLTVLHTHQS

FRMPD4, Q14CM0 = target: FRMPD4, Q14CM0
Sequence of FRMPD4, Q14CM0 (Q14CM0 67-160): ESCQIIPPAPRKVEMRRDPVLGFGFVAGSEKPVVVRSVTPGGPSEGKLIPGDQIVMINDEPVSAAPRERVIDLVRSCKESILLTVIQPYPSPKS

GORASP2, Q9H8Y8 = target: GORASP2, Q9H8Y8
GRIP2_5, Q9C0E4 = target: GRIP2_5, Q9C0E4
Sequence of GRIP2_5, Q9C0E4 (Q9C0E4 544-642): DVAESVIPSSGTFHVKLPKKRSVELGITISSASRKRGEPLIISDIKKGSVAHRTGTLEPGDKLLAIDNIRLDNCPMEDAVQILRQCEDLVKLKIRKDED

IL16_3, Q14005 = target: IL16_3, Q14005
Sequence of IL16_3, Q14005 (Q14005 1107-1207): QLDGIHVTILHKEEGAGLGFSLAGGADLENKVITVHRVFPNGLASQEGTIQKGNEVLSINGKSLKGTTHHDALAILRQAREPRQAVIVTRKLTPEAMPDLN

IL16_4, Q14005 = target: IL16_4, Q14005
Sequence of IL16_4, Q14005 (Q14005 1229-1329): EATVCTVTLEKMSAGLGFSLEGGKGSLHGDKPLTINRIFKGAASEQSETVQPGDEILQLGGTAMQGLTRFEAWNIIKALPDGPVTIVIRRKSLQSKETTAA

Inadl_9, Q8NI35 = target: Inadl_9, Q8NI35
Sequence of Inadl_9, Q8NI35 (Q8NI35 1530-1615): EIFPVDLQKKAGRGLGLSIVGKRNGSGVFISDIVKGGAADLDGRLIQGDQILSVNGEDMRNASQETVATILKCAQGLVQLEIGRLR

LIN7A, O14910 = target: T4, LIN7A, O14910
MAGI1_1, Q96QZ7 = target: MAGI1_1, Q96QZ7
Sequence of MAGI1_1, Q96QZ7 (Q96QZ7 1-106): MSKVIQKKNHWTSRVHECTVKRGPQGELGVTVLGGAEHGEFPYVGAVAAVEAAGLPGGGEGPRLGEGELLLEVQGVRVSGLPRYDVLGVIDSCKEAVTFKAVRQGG

MAGI2_3, Q86UL8 = target: MAGI2_3, Q86UL8
Sequence of MAGI2_3, Q86UL8 (Q86UL8 600-682): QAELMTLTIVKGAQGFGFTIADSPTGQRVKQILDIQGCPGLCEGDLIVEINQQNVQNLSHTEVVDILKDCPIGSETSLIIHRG

MAGI2_6, Q86UL8 = target: MAGI2_6, Q86UL8
Sequence of MAGI2_6, Q86UL8 (Q86UL8 1141-1229): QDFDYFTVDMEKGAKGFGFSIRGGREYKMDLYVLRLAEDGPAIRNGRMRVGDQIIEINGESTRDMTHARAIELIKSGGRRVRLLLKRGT

NHERF3_1, Q5T2W1 = target: T5, NHERF3_1, Q5T2W1
NOS1, P29475 = target: NOS1, P29475
Sequence of NOS1, P29475 (P29475 9-101): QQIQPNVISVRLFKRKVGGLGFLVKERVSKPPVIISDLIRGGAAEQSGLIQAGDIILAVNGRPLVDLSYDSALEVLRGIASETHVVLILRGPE

PARD3B_1, Q8TEW8 = target: T6, PARD3B_1, Q8TEW8
RADIL, Q96JH8 = target: T7, RADIL, Q96JH8
SNTG1, Q9NSN8 = target: T8, SNTG1, Q9NSN8
SYNJ2BP, P57105 = target: T9, SYNJ2BP, P57105
TJP3_3, O95049 = target: T10, TJP3_3, O95049
TX1BP3, O14907 = target: T11, TX1BP3, O14907

| Binder | pKd (APBA3_1, O96018) | pKd (CASK, O14936) | pKd (DFNB31_3, Q9P202) | pKd (DLG2_2, Q15700) | pKd (DLG2_3, Q15700) | pKd (DLG3_2, Q92796) | pKd (DLG5_1, Q8TDM6) | pKd (FRMPD2_1, Q68DX3) | pKd (FRMPD3, Q5JV73) | pKd (FRMPD4, Q14CM0) | pKd (GORASP2, Q9H8Y8) | pKd (GRIP2_5, Q9C0E4) | pKd (IL16_3, Q14005) | pKd (IL16_4, Q14005) | pKd (Inadl_9, Q8NI35) | pKd (LIN7A, O14910) | pKd (MAGI1_1, Q96QZ7) | pKd (MAGI2_3, Q86UL8) | pKd (MAGI2_6, Q86UL8) | pKd (NHERF3_1, Q5T2W1) | also measured |
| --- | --- | --- | --- | --- | --- | --- | --- | --- | --- | --- | --- | --- | --- | --- | --- | --- | --- | --- | --- | --- | --- |
| VISERNSTTV [C3AR1, Q16581] | below the threshold | below the threshold | below the threshold | 4.49 | 3.8 | 4.42 | below the threshold | below the threshold | below the threshold | below the threshold | below the threshold | below the threshold | below the threshold | below the threshold | 3.64 | below the threshold | below the threshold | below the threshold | 3.49 | below the threshold | pKd (NOS1, P29475): below the threshold; pKd (PARD3B_1, Q8TEW8): below the threshold; pKd (RADIL, Q96JH8): 4.11; pKd (SNTG1, Q9NSN8): below the threshold; pKd (SYNJ2BP, P57105): 4.68; pKd (TJP3_3, O95049): below the threshold; pKd (TX1BP3, O14907): below the threshold |
| PDGEMMEVLI [AMOTL1, Q8IY63] | below the threshold | below the threshold | 3.65 | below the threshold | 3.58 | 4.06 | below the threshold | below the threshold | below the threshold | below the threshold | below the threshold | below the threshold | below the threshold | below the threshold | 3.58 | below the threshold | below the threshold | below the threshold | below the threshold | 4.05 | pKd (NOS1, P29475): 4.01; pKd (PARD3B_1, Q8TEW8): 4.95; pKd (RADIL, Q96JH8): 3.9; pKd (SNTG1, Q9NSN8): 3.63; pKd (SYNJ2BP, P57105): below the threshold; pKd (TJP3_3, O95049): below the threshold; pKd (TX1BP3, O14907): below the threshold |
| SKSLERATQL [COMMD3, Q9UBI1] | below the threshold | below the threshold | 4.25 | 3.83 | 3.71 | 4.01 | below the threshold | below the threshold | below the threshold | 4.33 | 3.84 | below the threshold | below the threshold | 3.95 | below the threshold | below the threshold | below the threshold | below the threshold | 3.79 | 5.82 | pKd (NOS1, P29475): 4.02; pKd (PARD3B_1, Q8TEW8): 3.95; pKd (RADIL, Q96JH8): 3.63; pKd (SNTG1, Q9NSN8): 3.51; pKd (SYNJ2BP, P57105): 3.73; pKd (TJP3_3, O95049): below the threshold; pKd (TX1BP3, O14907): below the threshold |
| REVVMRVTTV [MARCHF9, Q86YJ5] | below the threshold | 3.5 | 4.31 | 5.2 | 4.92 | 5.23 | below the threshold | below the threshold | below the threshold | below the threshold | 5.53 | below the threshold | below the threshold | 3.53 | 3.75 | 3.82 | below the threshold | 4.6 | 4.4 | below the threshold | pKd (NOS1, P29475): 3.76; pKd (PARD3B_1, Q8TEW8): below the threshold; pKd (RADIL, Q96JH8): 4.68; pKd (SNTG1, Q9NSN8): 4.89; pKd (SYNJ2BP, P57105): 4.82; pKd (TJP3_3, O95049): below the threshold; pKd (TX1BP3, O14907): 4.61 |

Further lines, with some results ahead:

| pKd (APBA3_1, O96018) | pKd (CASK, O14936) | pKd (DFNB31_3, Q9P202) | pKd (DLG2_2, Q15700) | pKd (DLG2_3, Q15700) | pKd (DLG3_2, Q92796) | pKd (DLG5_1, Q8TDM6) | pKd (FRMPD2_1, Q68DX3) | pKd (FRMPD3, Q5JV73) | pKd (FRMPD4, Q14CM0) | pKd (GORASP2, Q9H8Y8) | pKd (GRIP2_5, Q9C0E4) | pKd (IL16_3, Q14005) | pKd (IL16_4, Q14005) | pKd (Inadl_9, Q8NI35) | pKd (LIN7A, O14910) | pKd (MAGI1_1, Q96QZ7) | pKd (MAGI2_3, Q86UL8) | pKd (MAGI2_6, Q86UL8) | pKd (NHERF3_1, Q5T2W1) | Binder | also measured |
| --- | --- | --- | --- | --- | --- | --- | --- | --- | --- | --- | --- | --- | --- | --- | --- | --- | --- | --- | --- | --- | --- |
| below the threshold | below the threshold | below the threshold | 4.84 | 3.55 | 4.85 | 3.69 | below the threshold | below the threshold | below the threshold | 3.8 | 3.48 | below the threshold | below the threshold | 3.89 | 4.38 | below the threshold | below the threshold | 4.45 | 3.93 | QELLEYETTV [XKR7, Q5GH72] | pKd (NOS1, P29475): below the threshold; pKd (PARD3B_1, Q8TEW8): below the threshold; pKd (RADIL, Q96JH8): 4.73; pKd (SNTG1, Q9NSN8): 5.14; pKd (SYNJ2BP, P57105): 4.98; pKd (TJP3_3, O95049): 3.5; pKd (TX1BP3, O14907): 3.92 |
| below the threshold | below the threshold | below the threshold | 3.51 | below the threshold | below the threshold | below the threshold | below the threshold | below the threshold | 4.7 | below the threshold | below the threshold | below the threshold | below the threshold | below the threshold | below the threshold | below the threshold | below the threshold | 3.69 | 5.16 | WRSKRTDTLL [RAMP3, O60896] | pKd (NOS1, P29475): 3.89; pKd (PARD3B_1, Q8TEW8): 4.32; pKd (RADIL, Q96JH8): 3.57; pKd (SNTG1, Q9NSN8): below the threshold; pKd (SYNJ2BP, P57105): 3.84; pKd (TJP3_3, O95049): below the threshold; pKd (TX1BP3, O14907): 4.13 |
